Measured values from US20050058645A1.

What was measured:
[1] = target: T1, FLAG-tagged IL-4Rα-gp130 chimeric receptor; test: cell-based or functional assay
T1 sequence: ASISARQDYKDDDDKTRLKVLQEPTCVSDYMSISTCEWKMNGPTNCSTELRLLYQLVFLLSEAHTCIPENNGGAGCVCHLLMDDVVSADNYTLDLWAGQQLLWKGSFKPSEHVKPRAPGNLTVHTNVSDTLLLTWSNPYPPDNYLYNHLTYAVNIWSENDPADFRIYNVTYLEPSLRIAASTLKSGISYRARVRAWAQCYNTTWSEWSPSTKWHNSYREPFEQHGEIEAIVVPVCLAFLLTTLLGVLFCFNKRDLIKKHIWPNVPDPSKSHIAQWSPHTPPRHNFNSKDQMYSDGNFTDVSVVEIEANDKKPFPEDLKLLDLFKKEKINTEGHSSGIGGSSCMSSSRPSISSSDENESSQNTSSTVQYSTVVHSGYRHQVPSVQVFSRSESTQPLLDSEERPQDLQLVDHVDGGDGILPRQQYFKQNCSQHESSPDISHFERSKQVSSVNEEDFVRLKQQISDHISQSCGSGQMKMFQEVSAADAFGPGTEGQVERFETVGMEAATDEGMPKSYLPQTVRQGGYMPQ

[2] = target: FLAG-tagged IL-13Rα1-gp130 chimeric receptor (human); test: cell-based or functional assay

IL-4 (species not stated) (ligand), sequence (P05112 25-153): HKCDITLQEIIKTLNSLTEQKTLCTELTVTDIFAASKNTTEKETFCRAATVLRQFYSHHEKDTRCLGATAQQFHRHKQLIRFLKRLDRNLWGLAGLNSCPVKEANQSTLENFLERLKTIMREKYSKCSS

| Substance | 50% of maximal activity, STAT-3 luciferase reporter, lines 3.1.2 and 3.2.4 [1] | 50% of maximal activity, STAT-3 luciferase reporter, lines 3.1.2 and 3.2.4 [2] |
| --- | --- | --- |
| IL-4 (species not stated) (ligand) | 2 to 4 ng/mL |  |
| IL-13 (species not stated) (ligand) |  | 100 to 200 pg/mL |
